Measured values as given in PMC9294600.

molecular target: HA-tagged p62 (SQSTM1) (UniProt Q13501); experiment: coimmunoprecipitation and immunoblot, quantified; conditions: 293T cells; 0.2 μM Baf A1 for 6 h; parent: est. 1.0; read off a plot

**Q.** With “Flag-tagged dengue virus (DENV) capsid protein K76R” as the substance, how does the ratio to parent read?
**A.** Its ratio to parent is 0.22.

**Q.** How did the ratio to parent turn out when “Flag-tagged dengue virus (DENV) capsid protein K17R” was run?
**A.** The ratio to parent was 1.1.

**Q.** “Flag-tagged dengue virus (DENV) capsid protein K6R” was tested. Which ratio to parent did it give?
**A.** The ratio to parent was 0.81.
